Source: paper PMC6200739

Columns and labels:
[1] = target: Flag-tagged LDHA containing a nuclear localization signal peptide; experiment: SEC
[2] = target: Flag-tagged LDHA containing a nuclear localization signal peptide; experiment: cross-linking

Substance: Flag-tagged LDHA containing a nuclear localization signal peptide (enzyme)
- stoichiometry N [1]: 2
- stoichiometry N [2]: 2
